In patent US20190015483A1 (CSL BEHRING RECOMBINANT FACILITY, published 2019):

T1: recombinant Factor VIII (CSL627, rVIII-SingleChain) (Homo sapiens (Human), UniProt P00451 20-2351)
T1 construct: also called FVIII
T1 sequence: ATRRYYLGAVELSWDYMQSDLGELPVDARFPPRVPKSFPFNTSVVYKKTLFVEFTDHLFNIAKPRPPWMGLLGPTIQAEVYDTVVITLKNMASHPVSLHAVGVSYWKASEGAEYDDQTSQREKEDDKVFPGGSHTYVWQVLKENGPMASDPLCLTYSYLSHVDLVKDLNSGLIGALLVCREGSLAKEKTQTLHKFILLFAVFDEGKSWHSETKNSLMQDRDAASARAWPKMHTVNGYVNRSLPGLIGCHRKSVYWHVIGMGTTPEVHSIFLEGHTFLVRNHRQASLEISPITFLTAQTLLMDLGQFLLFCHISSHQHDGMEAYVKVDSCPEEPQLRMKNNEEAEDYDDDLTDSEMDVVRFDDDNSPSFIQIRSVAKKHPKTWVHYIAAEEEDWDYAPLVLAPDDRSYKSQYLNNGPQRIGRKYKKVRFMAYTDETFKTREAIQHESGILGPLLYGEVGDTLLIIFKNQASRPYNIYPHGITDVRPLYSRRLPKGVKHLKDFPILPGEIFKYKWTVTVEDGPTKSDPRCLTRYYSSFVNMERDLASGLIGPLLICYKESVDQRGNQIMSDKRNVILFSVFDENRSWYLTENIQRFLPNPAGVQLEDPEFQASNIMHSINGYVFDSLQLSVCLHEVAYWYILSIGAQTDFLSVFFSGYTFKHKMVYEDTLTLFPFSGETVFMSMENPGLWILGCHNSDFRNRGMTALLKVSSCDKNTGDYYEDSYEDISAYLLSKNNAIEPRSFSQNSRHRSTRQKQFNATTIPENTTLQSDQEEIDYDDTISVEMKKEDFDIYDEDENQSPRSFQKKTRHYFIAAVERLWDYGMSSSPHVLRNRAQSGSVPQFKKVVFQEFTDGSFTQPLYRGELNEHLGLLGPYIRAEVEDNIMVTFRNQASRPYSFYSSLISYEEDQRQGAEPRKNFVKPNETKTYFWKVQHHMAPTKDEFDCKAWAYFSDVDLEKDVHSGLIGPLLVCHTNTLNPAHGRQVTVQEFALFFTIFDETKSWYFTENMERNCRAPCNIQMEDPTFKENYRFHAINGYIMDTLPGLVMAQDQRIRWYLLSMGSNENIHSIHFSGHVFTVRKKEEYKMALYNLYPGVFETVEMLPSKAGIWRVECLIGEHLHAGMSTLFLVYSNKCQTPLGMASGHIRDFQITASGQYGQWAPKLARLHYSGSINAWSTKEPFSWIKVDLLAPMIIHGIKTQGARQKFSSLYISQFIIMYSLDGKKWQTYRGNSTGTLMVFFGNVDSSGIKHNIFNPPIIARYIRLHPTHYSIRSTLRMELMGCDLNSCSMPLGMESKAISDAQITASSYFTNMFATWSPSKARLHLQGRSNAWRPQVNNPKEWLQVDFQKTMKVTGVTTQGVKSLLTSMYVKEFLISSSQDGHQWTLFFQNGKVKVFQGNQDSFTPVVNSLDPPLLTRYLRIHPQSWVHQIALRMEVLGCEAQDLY


Biological target: T1, recombinant Factor VIII (CSL627, …)
Assay: SPR, anti-His capture
Method: Binding kinetics were investigated by surface plasmon resonance using a Biacore 4000 biosensor at 37° C. Each mutant was captured from cell culture medium to a density of 40-150 RU on a CM-5 sensor chip pre-immobilised with anti-His antibody (14,000 RU). In an initial screening study, FVIII was injected over the captured mutants for 5 minutes at 1 nM and dissociation monitored for 5 minutes.
All sensorgrams were double referenced by subtraction of signals from a reference spot (containing only immobilised anti His antibody) and from a blank injection. Binding kinetics were determined by fitting the double referenced sensorgrams to a 1:1 kinetic model.

Kd | koff | kon | Binder
6.39 pM | 0.000292 s⁻¹ | 4.56e+07 M⁻¹ s⁻¹ | Hu-vWF[764-1270]-8His S764H/S766Y (other) HLYCRPPMVKLVCPADNLRAEGLECTKTCQNYDLECMSMGCVSGCLCPPGMVRHENRCVALERCPCFHQGKEYAPGETVKIGCNTCVCRDRKWNCTDHVCDATCSTIGMAHYLTFDGLKYLFPGECQYVLVQDYCGSNPGTFRILVGNKGCSHPSVKCKKRVTILVEGGEIELFDGEVNVKRPMKDETHFEVVESGRYIILLLGKALSVVWDRHLSISVVLKQTYQEKVCGLCGNFDGIQNNDLTSSNLQVEEDPVDFGNSWKVSSQCADTRKVPLDSSPATCHNNIMKQTMVDSSCRILTSDVFQDCNKLVDPEPYLDVCIYDTCSCESIGDCACFCDTIAAYAHVCAQHGKVVTWRTATLCPQSCEERNLRENGYECEWRYNSCAPACQVTCQHPEPLACPVQCVEGCHAHCPPGKILDELLQTCVDPEDCPVCEVAGRRFASGKKVTLNPSDPEHCQICHCDVVNLTCEACQEPGGLVVPPTDAPVSPTTLYVEDISEPPLHDFHHHHHHHH
43.5 pM | 0.000822 s⁻¹ | 1.89e+07 M⁻¹ s⁻¹ | Hu-vWF[764-1270]-8His S764K/S766Y (other) KLYCRPPMVKLVCPADNLRAEGLECTKTCQNYDLECMSMGCVSGCLCPPGMVRHENRCVALERCPCFHQGKEYAPGETVKIGCNTCVCRDRKWNCTDHVCDATCSTIGMAHYLTFDGLKYLFPGECQYVLVQDYCGSNPGTFRILVGNKGCSHPSVKCKKRVTILVEGGEIELFDGEVNVKRPMKDETHFEVVESGRYIILLLGKALSVVWDRHLSISVVLKQTYQEKVCGLCGNFDGIQNNDLTSSNLQVEEDPVDFGNSWKVSSQCADTRKVPLDSSPATCHNNIMKQTMVDSSCRILTSDVFQDCNKLVDPEPYLDVCIYDTCSCESIGDCACFCDTIAAYAHVCAQHGKVVTWRTATLCPQSCEERNLRENGYECEWRYNSCAPACQVTCQHPEPLACPVQCVEGCHAHCPPGKILDELLQTCVDPEDCPVCEVAGRRFASGKKVTLNPSDPEHCQICHCDVVNLTCEACQEPGGLVVPPTDAPVSPTTLYVEDISEPPLHDFHHHHHHHH
9.23 pM | 9.52e-05 s⁻¹ | 1.03e+07 M⁻¹ s⁻¹ | Hu-vWF[764-1270]-8His S764I/S766Y (other) ILYCRPPMVKLVCPADNLRAEGLECTKTCQNYDLECMSMGCVSGCLCPPGMVRHENRCVALERCPCFHQGKEYAPGETVKIGCNTCVCRDRKWNCTDHVCDATCSTIGMAHYLTFDGLKYLFPGECQYVLVQDYCGSNPGTFRILVGNKGCSHPSVKCKKRVTILVEGGEIELFDGEVNVKRPMKDETHFEVVESGRYIILLLGKALSVVWDRHLSISVVLKQTYQEKVCGLCGNFDGIQNNDLTSSNLQVEEDPVDFGNSWKVSSQCADTRKVPLDSSPATCHNNIMKQTMVDSSCRILTSDVFQDCNKLVDPEPYLDVCIYDTCSCESIGDCACFCDTIAAYAHVCAQHGKVVTWRTATLCPQSCEERNLRENGYECEWRYNSCAPACQVTCQHPEPLACPVQCVEGCHAHCPPGKILDELLQTCVDPEDCPVCEVAGRRFASGKKVTLNPSDPEHCQICHCDVVNLTCEACQEPGGLVVPPTDAPVSPTTLYVEDISEPPLHDFHHHHHHHH

The next lines start with the binder.

Binder | Kd | koff | kon
Hu-vWF[764-1270]-8His S764D/S766Y (other) DLYCRPPMVKLVCPADNLRAEGLECTKTCQNYDLECMSMGCVSGCLCPPGMVRHENRCVALERCPCFHQGKEYAPGETVKIGCNTCVCRDRKWNCTDHVCDATCSTIGMAHYLTFDGLKYLFPGECQYVLVQDYCGSNPGTFRILVGNKGCSHPSVKCKKRVTILVEGGEIELFDGEVNVKRPMKDETHFEVVESGRYIILLLGKALSVVWDRHLSISVVLKQTYQEKVCGLCGNFDGIQNNDLTSSNLQVEEDPVDFGNSWKVSSQCADTRKVPLDSSPATCHNNIMKQTMVDSSCRILTSDVFQDCNKLVDPEPYLDVCIYDTCSCESIGDCACFCDTIAAYAHVCAQHGKVVTWRTATLCPQSCEERNLRENGYECEWRYNSCAPACQVTCQHPEPLACPVQCVEGCHAHCPPGKILDELLQTCVDPEDCPVCEVAGRRFASGKKVTLNPSDPEHCQICHCDVVNLTCEACQEPGGLVVPPTDAPVSPTTLYVEDISEPPLHDFHHHHHHHH | 3.12 pM | 0.000118 s⁻¹ | 3.78e+07 M⁻¹ s⁻¹
Hu-vWF[764-1270]-8His S764G/S766Y (other) GLYCRPPMVKLVCPADNLRAEGLECTKTCQNYDLECMSMGCVSGCLCPPGMVRHENRCVALERCPCFHQGKEYAPGETVKIGCNTCVCRDRKWNCTDHVCDATCSTIGMAHYLTFDGLKYLFPGECQYVLVQDYCGSNPGTFRILVGNKGCSHPSVKCKKRVTILVEGGEIELFDGEVNVKRPMKDETHFEVVESGRYIILLLGKALSVVWDRHLSISVVLKQTYQEKVCGLCGNFDGIQNNDLTSSNLQVEEDPVDFGNSWKVSSQCADTRKVPLDSSPATCHNNIMKQTMVDSSCRILTSDVFQDCNKLVDPEPYLDVCIYDTCSCESIGDCACFCDTIAAYAHVCAQHGKVVTWRTATLCPQSCEERNLRENGYECEWRYNSCAPACQVTCQHPEPLACPVQCVEGCHAHCPPGKILDELLQTCVDPEDCPVCEVAGRRFASGKKVTLNPSDPEHCQICHCDVVNLTCEACQEPGGLVVPPTDAPVSPTTLYVEDISEPPLHDFHHHHHHHH | 1.96 pM | 2.69e-05 s⁻¹ | 1.37e+07 M⁻¹ s⁻¹
Hu-vWF[764-1270]-8His S764E/S766Y (other) ELYCRPPMVKLVCPADNLRAEGLECTKTCQNYDLECMSMGCVSGCLCPPGMVRHENRCVALERCPCFHQGKEYAPGETVKIGCNTCVCRDRKWNCTDHVCDATCSTIGMAHYLTFDGLKYLFPGECQYVLVQDYCGSNPGTFRILVGNKGCSHPSVKCKKRVTILVEGGEIELFDGEVNVKRPMKDETHFEVVESGRYIILLLGKALSVVWDRHLSISVVLKQTYQEKVCGLCGNFDGIQNNDLTSSNLQVEEDPVDFGNSWKVSSQCADTRKVPLDSSPATCHNNIMKQTMVDSSCRILTSDVFQDCNKLVDPEPYLDVCIYDTCSCESIGDCACFCDTIAAYAHVCAQHGKVVTWRTATLCPQSCEERNLRENGYECEWRYNSCAPACQVTCQHPEPLACPVQCVEGCHAHCPPGKILDELLQTCVDPEDCPVCEVAGRRFASGKKVTLNPSDPEHCQICHCDVVNLTCEACQEPGGLVVPPTDAPVSPTTLYVEDISEPPLHDFHHHHHHHH | 3.87 pM | 7.64e-05 s⁻¹ | 1.97e+07 M⁻¹ s⁻¹
Hu-vWF[764-1270]-8His S764F/S766Y (other) FLYCRPPMVKLVCPADNLRAEGLECTKTCQNYDLECMSMGCVSGCLCPPGMVRHENRCVALERCPCFHQGKEYAPGETVKIGCNTCVCRDRKWNCTDHVCDATCSTIGMAHYLTFDGLKYLFPGECQYVLVQDYCGSNPGTFRILVGNKGCSHPSVKCKKRVTILVEGGEIELFDGEVNVKRPMKDETHFEVVESGRYIILLLGKALSVVWDRHLSISVVLKQTYQEKVCGLCGNFDGIQNNDLTSSNLQVEEDPVDFGNSWKVSSQCADTRKVPLDSSPATCHNNIMKQTMVDSSCRILTSDVFQDCNKLVDPEPYLDVCIYDTCSCESIGDCACFCDTIAAYAHVCAQHGKVVTWRTATLCPQSCEERNLRENGYECEWRYNSCAPACQVTCQHPEPLACPVQCVEGCHAHCPPGKILDELLQTCVDPEDCPVCEVAGRRFASGKKVTLNPSDPEHCQICHCDVVNLTCEACQEPGGLVVPPTDAPVSPTTLYVEDISEPPLHDFHHHHHHHH | 12.2 pM | 9.36e-05 s⁻¹ | 7.68e+06 M⁻¹ s⁻¹
